B1: MDH from M. alcaliphilum 20Z (MDH-20Z) (Methylotuvimicrobium alcaliphilum 20Z) (protein)
chain: MKTPVKIAVTGAAGQISYSLLFRLASGELLGPDQPMIFHLLETPQALALGALNGVVMELNDCAYPLLHKIVTTDDPDVAFKDVDYAFLIGASPRKPGMERKDLLAINAQIFSVQGQALSKVASRDVKVLVTGNPANTNALIAISNAPDLRPENFSAMMMLDHKRATFQLADKCGVLSNDIKNIIIWGNHSAGQYPDLHHAKVKGQDALSLVEWDWFVDKFIPTVQQRGAVVIQAVGRSSAASAANAALNLMRNWVFGTDEGNWISMAVPSDGSYGIEKDLVYSFPVEIKNGEISIVQGLEISDFSREKMRKSEAELKEEREAVKHLL
notes: full-length, C-terminal His6 (pET22b NdeI/XhoI), E. coli BL21 (DE3), Ni-NTA; homodimer 70 kDa
B2: MDH from M. trichosporium OB3b (MDH-OB3b) (Methylosinus trichosporium OB3b) (protein)
chain: MARKKIALIGAGNIGGTLAHLIGLKELGDIVLFDIAAGVPQGKALDLAQSSPVSGFDATISGADDYSAIAGADVVIVTAGVPRQPGMSRDDLLSVNLGVVSKVGAGIKTYAPDAFVICITNPLDVMVWALQKCSGLPPAKVVGMAGVLDSARFRYFLAEELQVSVEDVSAFVLGGHGDDMVPSVRYSTVAGVPLPDLVGMGWITQAKIDAIVERTRKGGGEIVSLLKTGSAYYAPAASAIAMAESYLKDKRRVLPCAAHLSGQYGVSDLYVGVPVVIGANGVERIVEISLDSAERQMFDKSVASVRTLIAASKALDPSFA
notes: full-length, C-terminal His6 (pET22b NdeI/XhoI), E. coli BL21 (DE3), Ni-NTA; homotetramer 140 kDa; forward primer encodes (M)MARKKIA; LDH-like MDH, group III

What was measured:
Assay in all cases: purified protein
purified protein [1] = substrate: O=C(O)C[C@H](O)C(=O)O; conditions: malate oxidation, co-substrate NAD+
purified protein [2] = substrate: NC(=O)c1ccc[n+]([C@@H]2O[C@H](COP(=O)(O)OP(=O)(O)OC[C@H]3O[C@@H](n4cnc5c(N)ncnc54)[C@H](O)[C@@H]3O)[C@@H](O)[C@H]2O)c1; assay type: biochemical, Methylotuvimicrobium alcaliphilum; conditions: malate oxidation, co-substrate malate, pH 10, 30 °C, varied: cofactor
purified protein [3] = substrate: O=C(O)CC(=O)C(=O)O; assay type: biochemical, Methylotuvimicrobium alcaliphilum; conditions: oxaloacetate reduction, co-substrate NADH, pH 10, 30 °C
purified protein [4] = substrate: NC(=O)C1=CN([C@@H]2O[C@H](COP(=O)(O)OP(=O)(O)OC[C@H]3O[C@@H](n4cnc5c(N)ncnc54)[C@H](O)[C@@H]3O)[C@@H](O)[C@H]2O)C=CC1; assay type: biochemical, Methylotuvimicrobium alcaliphilum; conditions: oxaloacetate reduction, co-substrate oxaloacetate, pH 10, 30 °C, varied: cofactor
purified protein [5] = substrate: NC(=O)c1ccc[n+]([C@@H]2O[C@H](COP(=O)(O)OP(=O)(O)OC[C@H]3O[C@@H](n4cnc5c(N)ncnc54)[C@H](O)[C@@H]3O)[C@@H](O)[C@H]2O)c1; assay type: biochemical, Methylosinus trichosporium; conditions: malate oxidation, co-substrate malate, pH 9.5, 30 °C, varied: cofactor
purified protein [6] = substrate: O=C(O)CC(=O)C(=O)O; assay type: biochemical, Methylosinus trichosporium; conditions: oxaloacetate reduction, co-substrate NADH, pH 9.5, 30 °C
purified protein [7] = substrate: NC(=O)C1=CN([C@@H]2O[C@H](COP(=O)(O)OP(=O)(O)OC[C@H]3O[C@@H](n4cnc5c(N)ncnc54)[C@H](O)[C@@H]3O)[C@@H](O)[C@H]2O)C=CC1; assay type: biochemical, Methylosinus trichosporium; conditions: oxaloacetate reduction, co-substrate oxaloacetate, pH 9.5, 30 °C, varied: cofactor

Row | Protein | Km (purified protein [1]; pH 10, 30 °C, pH 10.0) [µM] | kcat (purified protein [1]; pH 10, 30 °C, pH 10.0) [s⁻¹] | Km (purified protein [2]) [µM] | Km (purified protein [3]) [µM] | kcat (purified protein [3]) [s⁻¹] | Km (purified protein [4]) [µM] | Km (purified protein [1]; pH 9.5, 30 °C, pH 9.5) [µM] | kcat (purified protein [1]; pH 9.5, 30 °C, pH 9.5) [s⁻¹] | Km (purified protein [5]) [µM] | Km (purified protein [6]) [µM] | kcat (purified protein [6]) [s⁻¹] | Km (purified protein [7]) [µM]
1 | B1 | 110 ± 10 | 621 | 450 ± 80 | 340 ± 30 | 870 | 25.2 ± 0.4 | – | – | – | – | – | –
2 | B2 | – | – | – | – | – | – | 1280 ± 170 | 516 | 330 ± 40 | 59 ± 7 | 1141 | 37.6 ± 4.6

Reference: publication PMC5023229, “Role of NAD^+-Dependent Malate Dehydrogenase in the Metabolism of Methylomicrobium alcaliphilum 20Z and Methylosinus trichosporium OB3b” (Microorganisms, 2015)
